Experimental data as given in PMC2756588.

Experiments:
Experiment in all cases: SPOT array
[1] = target: T1, Hof1, Q05080; settings: median of control spots 4086
T1 sequence (Q05080 590-669, looked up): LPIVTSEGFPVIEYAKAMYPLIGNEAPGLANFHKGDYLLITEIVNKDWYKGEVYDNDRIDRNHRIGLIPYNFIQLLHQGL

[2] = target: T2, Boi2, P39969; settings: median of control spots 1161
T2 sequence (P39969 32-116, looked up): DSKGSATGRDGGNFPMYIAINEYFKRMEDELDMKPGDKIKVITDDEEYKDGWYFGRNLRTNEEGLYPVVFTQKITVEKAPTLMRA

[3] = target: T3, Bzz1-1, P38822; settings: median of control spots 4446
T3 sequence (P38822 478-572, looked up): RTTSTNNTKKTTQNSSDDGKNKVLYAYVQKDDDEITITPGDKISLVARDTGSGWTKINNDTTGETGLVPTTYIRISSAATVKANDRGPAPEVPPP

[4] = target: Sho1, P40073; settings: median of control spots 1148
[5] = target: T4, Lsb4, P32793; settings: median of control spots 397
T4 sequence (P32793 402-468, looked up): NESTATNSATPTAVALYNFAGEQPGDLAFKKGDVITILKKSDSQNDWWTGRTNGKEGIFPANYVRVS

[6] = target: T5, Hse1, P38753; settings: median of control spots 1727
T5 sequence (P38753 208-285, looked up): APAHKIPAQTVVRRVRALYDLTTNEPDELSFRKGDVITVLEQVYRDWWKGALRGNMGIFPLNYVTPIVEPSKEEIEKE

[7] = target: T6, Pin3, Q06449; settings: median of control spots 2171
T6 sequence (Q06449 53-122, looked up): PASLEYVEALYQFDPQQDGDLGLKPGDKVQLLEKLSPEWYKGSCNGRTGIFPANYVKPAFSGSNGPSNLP

[8] = target: T7, Boi1, P38041; settings: median of control spots 1162
T7 sequence (P38041 1-86, looked up): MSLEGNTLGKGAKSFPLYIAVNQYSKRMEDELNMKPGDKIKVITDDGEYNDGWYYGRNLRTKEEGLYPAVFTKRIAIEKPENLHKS

[9] = target: T8, Fus1, P11710; settings: median of control spots 1200
T8 sequence (P11710 432-512, looked up): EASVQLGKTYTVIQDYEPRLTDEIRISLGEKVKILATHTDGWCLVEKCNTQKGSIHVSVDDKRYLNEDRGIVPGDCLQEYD

[10] = target: Rvs167, P39743; settings: median of control spots 2707
[11] = target: T9, Bzz1-2, P38822; settings: median of control spots 4538
T9 sequence (P38822 568-633, looked up): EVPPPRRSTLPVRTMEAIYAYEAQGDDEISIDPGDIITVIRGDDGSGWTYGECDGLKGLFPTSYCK

[12] = target: T10, Lsb1, P53281; settings: median of control spots 388
T10 sequence (P53281 45-122, looked up): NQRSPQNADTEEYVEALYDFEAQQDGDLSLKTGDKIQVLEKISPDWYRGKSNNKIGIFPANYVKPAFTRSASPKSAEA

[13] = target: Myo3, P36006; settings: median of control spots 468
[14] = target: T11, Pex13, P80667; settings: median of control spots 1341
T11 sequence (P80667 295-386, looked up): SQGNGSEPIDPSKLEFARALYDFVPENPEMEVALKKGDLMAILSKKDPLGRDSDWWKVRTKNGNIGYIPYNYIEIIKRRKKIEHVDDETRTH

[15] = target: GST; settings: median of control spots 978
[16] = target: T12, Abp1, P15891; settings: median of control spots 935
T12 sequence (P15891 535-592, looked up): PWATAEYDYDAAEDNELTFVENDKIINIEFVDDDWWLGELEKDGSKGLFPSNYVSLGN

[17] = target: T13, Myo5, Q04439; settings: median of control spots 471
T13 sequence (Q04439 1072-1160, looked up): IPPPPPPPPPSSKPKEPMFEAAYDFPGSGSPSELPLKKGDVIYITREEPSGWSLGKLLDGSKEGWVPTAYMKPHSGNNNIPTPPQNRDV

[18] = target: T14, Bbc1, P47068; settings: median of control spots 796
T14 sequence (P47068 1-78, looked up): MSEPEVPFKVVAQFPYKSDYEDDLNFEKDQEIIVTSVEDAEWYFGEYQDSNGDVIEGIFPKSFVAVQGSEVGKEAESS

[19] = target: T15, Sla1-3, P32790; settings: median of control spots 5475
T15 sequence (P32790 344-424, looked up): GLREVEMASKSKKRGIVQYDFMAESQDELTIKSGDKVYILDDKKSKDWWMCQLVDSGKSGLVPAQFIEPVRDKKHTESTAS

[20] = target: T16, Cyk3, Q07533; settings: median of control spots 1451
T16 sequence (Q07533 1-83, looked up): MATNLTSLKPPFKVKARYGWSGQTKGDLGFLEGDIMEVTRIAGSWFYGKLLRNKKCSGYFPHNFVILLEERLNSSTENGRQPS

[21] = target: Bem1-2, P29366; settings: median of control spots 4347
[22] = target: T17, Cdc25, P04821; settings: median of control spots 969
T17 sequence (P04821 50-136, looked up): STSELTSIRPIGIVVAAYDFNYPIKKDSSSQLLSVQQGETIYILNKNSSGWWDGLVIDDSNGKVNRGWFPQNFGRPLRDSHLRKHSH

[23] = target: T18, Lsb3, P43603; settings: median of control spots 406
T18 sequence (P43603 385-451, looked up): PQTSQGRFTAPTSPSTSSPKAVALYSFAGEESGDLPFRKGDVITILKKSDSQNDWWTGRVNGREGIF

[24] = target: T19, Bud14, P27637; settings: median of control spots 956
T19 sequence (P27637 247-328, looked up): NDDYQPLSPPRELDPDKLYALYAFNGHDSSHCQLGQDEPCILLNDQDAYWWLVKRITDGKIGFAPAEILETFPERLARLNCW

[25] = target: T20, Sla1-2, P32790; settings: median of control spots 712
T20 sequence (P32790 60-140, looked up): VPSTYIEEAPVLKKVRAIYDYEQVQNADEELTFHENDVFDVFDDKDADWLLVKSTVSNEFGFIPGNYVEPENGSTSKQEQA

[26] = target: T21, Nbp2, Q12163; settings: median of control spots 357
T21 sequence (Q12163 103-180, looked up): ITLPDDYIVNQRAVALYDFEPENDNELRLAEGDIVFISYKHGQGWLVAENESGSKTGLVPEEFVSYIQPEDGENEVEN

[27] = target: Bem1-1, P29366; settings: median of control spots 4282
Sequence of Bem1-1, P29366 (P29366 55-141): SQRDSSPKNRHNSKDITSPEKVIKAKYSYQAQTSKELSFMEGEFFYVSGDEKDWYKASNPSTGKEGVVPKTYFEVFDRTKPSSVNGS

Sequence of Sho1, P40073 (P40073 287-367): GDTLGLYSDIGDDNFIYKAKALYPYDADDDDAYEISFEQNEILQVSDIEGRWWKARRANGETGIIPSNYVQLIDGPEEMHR
Sequence of Bem1-2, P29366 (P29366 139-227): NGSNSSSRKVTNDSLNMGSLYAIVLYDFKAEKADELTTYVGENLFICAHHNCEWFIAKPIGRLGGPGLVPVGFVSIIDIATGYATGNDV
Sequence of Rvs167, P39743 (P39743 419-482): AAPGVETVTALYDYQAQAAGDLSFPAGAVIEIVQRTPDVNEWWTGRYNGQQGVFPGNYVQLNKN

B1: unnamed (peptide)
chain: SHRLWLYAAPKRPKT
SPOT intensity [1]: 5
SPOT intensity [2]: 0
SPOT intensity [3]: 2
SPOT intensity [4]: 39
SPOT intensity [5]: 0
SPOT intensity [6]: 8
SPOT intensity [7]: 13
SPOT intensity [8]: 1
SPOT intensity [9]: 20
SPOT intensity [10]: 0
SPOT intensity [11]: 0
SPOT intensity [12]: 0
SPOT intensity [13]: 6
SPOT intensity [14]: 8
SPOT intensity [15]: 0
SPOT intensity [16]: 47
SPOT intensity [17]: 0
SPOT intensity [18]: 34
SPOT intensity [19]: 16
SPOT intensity [20]: 4
SPOT intensity [21]: 0
SPOT intensity [22]: 5
SPOT intensity [23]: 5
SPOT intensity [24]: 5
SPOT intensity [25]: 3
SPOT intensity [26]: 1
SPOT intensity [27]: 0

B2: unnamed (peptide)
chain: HHNRRKPLEVYFKAT
SPOT intensity [1]: 12
SPOT intensity [2]: 2
SPOT intensity [3]: 3
SPOT intensity [4]: 43
SPOT intensity [5]: 1
SPOT intensity [6]: 6
SPOT intensity [7]: 20
SPOT intensity [8]: 0
SPOT intensity [9]: 565
SPOT intensity [10]: 2
SPOT intensity [11]: 0
SPOT intensity [12]: 0
SPOT intensity [13]: 3
SPOT intensity [14]: 16
SPOT intensity [15]: 1
SPOT intensity [16]: 10
SPOT intensity [17]: 1
SPOT intensity [18]: 7
SPOT intensity [19]: 14
SPOT intensity [20]: 3
SPOT intensity [21]: 6
SPOT intensity [22]: 10
SPOT intensity [23]: 0
SPOT intensity [24]: 10
SPOT intensity [25]: 0
SPOT intensity [26]: 0
SPOT intensity [27]: 43

B3: unnamed (peptide)
chain: KTRLRPAFIQQLWSS
SPOT intensity [1]: 0
SPOT intensity [2]: 0
SPOT intensity [3]: 0
SPOT intensity [4]: 22
SPOT intensity [5]: 0
SPOT intensity [6]: 5
SPOT intensity [7]: 15
SPOT intensity [8]: 1
SPOT intensity [9]: 7
SPOT intensity [10]: 1
SPOT intensity [11]: 0
SPOT intensity [12]: 0
SPOT intensity [13]: 0
SPOT intensity [14]: 7
SPOT intensity [15]: 0
SPOT intensity [16]: 31
SPOT intensity [17]: 0
SPOT intensity [18]: 17
SPOT intensity [19]: 33
SPOT intensity [20]: 3
SPOT intensity [21]: 0
SPOT intensity [22]: 13
SPOT intensity [23]: 0
SPOT intensity [24]: 4
SPOT intensity [25]: 0
SPOT intensity [26]: 4
SPOT intensity [27]: 1

B4: unnamed (peptide)
chain: LKQRFFLMFPKSIIW
SPOT intensity [1]: 5
SPOT intensity [2]: 1
SPOT intensity [3]: 0
SPOT intensity [4]: 53
SPOT intensity [5]: 0
SPOT intensity [6]: 8
SPOT intensity [7]: 54
SPOT intensity [8]: 2
SPOT intensity [9]: 38
SPOT intensity [10]: 0
SPOT intensity [11]: 0
SPOT intensity [12]: 7
SPOT intensity [13]: 12
SPOT intensity [14]: 21
SPOT intensity [15]: 0
SPOT intensity [16]: 63
SPOT intensity [17]: 0
SPOT intensity [18]: 23
SPOT intensity [19]: 17
SPOT intensity [20]: 4
SPOT intensity [21]: 1
SPOT intensity [22]: 25
SPOT intensity [23]: 0
SPOT intensity [24]: 27
SPOT intensity [25]: 0
SPOT intensity [26]: 9
SPOT intensity [27]: 0
